Measured values: article PMC3909270, “The basic keratin 10-binding domain of the virulence-associated pneumococcal serine-rich protein PsrP adopts a novel MSCRAMM fold” (Open Biology, 2014)

B2: KRT10 tail-rod-2B domain (KRT10-TRD) (domain or fragment)
chain: LKQSLEASLAETEGRYCVQLSQIQAQISALEEQLQQIRAETECQNTEYQQLLDIKIRLENEIQTYRSLLEGEGSSGGGGRGGGSFGGGYGGGSSGGGSSGGGHGGGHGGSSGGGYGGGSSGGGSSGGGYGGGSSSGGHGGSSSGGYGGGSSGGGGGGYGGGSSGGGSSSGGGYGGGSSSGGHKSSSSGSVGESSS
notes: Keratin-10 (KRT10), tail-rod-2B domain, residues 385-579, Uniprot ID P13645; source: expressed from pET21d, soluble, purified (IMAC, anion exchange)

How the values were obtained:
Settings in all cases: both partners purified
[1] = molecular target: B2; experiment: ELISA; KRT10 constructs coated on Nunc C96 plates (coating adjusted to KRT10-TRD at about 5 µg/ml), 2% BSA block; STII-BR_(187–385) 23 nM to 3 µM in PBS; detected with Strep-Tactin HRP; four-parameter logistic fit
[2] = molecular target: T1, KRT10 rod domain (KRT10-ROD) (human, UniProt P13645 137-448, M150L); experiment: as above
T1 construct: Keratin-10 (KRT10), rod domain, residues 137-448, Uniprot ID P13645; M150L introduced to prevent second translation initiation; source: expressed from pET21d, purified as inclusion bodies, anion exchange in 6 M urea, dialysed against urea-free buffer
T1 sequence: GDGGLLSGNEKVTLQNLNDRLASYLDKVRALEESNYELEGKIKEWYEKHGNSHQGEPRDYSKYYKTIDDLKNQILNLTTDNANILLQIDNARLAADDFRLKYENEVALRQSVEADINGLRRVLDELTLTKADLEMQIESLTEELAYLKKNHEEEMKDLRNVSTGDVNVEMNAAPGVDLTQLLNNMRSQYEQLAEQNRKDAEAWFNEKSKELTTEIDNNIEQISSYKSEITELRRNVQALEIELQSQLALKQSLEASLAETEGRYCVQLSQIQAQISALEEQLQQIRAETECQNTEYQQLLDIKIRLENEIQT

[3] = molecular target: T2, full-length keratin-10 (KRT10-FL) (human, UniProt P13645 1-584); experiment: as above
T2 construct: Keratin-10 (KRT10), residues 1-584, Uniprot ID P13645; also called KRT10-full-length; full-length KRT10; source: expressed from pET21d, purified as inclusion bodies, anion exchange in 6 M urea, dialysed against urea-free buffer
T2 sequence (looked up): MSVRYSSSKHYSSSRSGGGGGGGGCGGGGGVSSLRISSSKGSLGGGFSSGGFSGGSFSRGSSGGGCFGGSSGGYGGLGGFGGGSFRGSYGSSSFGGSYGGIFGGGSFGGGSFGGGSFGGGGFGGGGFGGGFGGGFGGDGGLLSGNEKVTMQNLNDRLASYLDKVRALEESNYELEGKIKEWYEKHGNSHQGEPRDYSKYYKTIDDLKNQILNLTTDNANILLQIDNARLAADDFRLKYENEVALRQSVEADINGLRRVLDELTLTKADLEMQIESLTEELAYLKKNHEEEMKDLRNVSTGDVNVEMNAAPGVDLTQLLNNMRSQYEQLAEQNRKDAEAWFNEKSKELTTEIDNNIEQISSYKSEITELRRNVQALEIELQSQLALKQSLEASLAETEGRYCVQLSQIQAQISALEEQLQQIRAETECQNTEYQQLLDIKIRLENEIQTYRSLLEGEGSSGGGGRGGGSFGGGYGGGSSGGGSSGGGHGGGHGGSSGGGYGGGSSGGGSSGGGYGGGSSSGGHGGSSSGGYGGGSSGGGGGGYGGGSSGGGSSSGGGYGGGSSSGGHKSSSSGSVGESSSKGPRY

[4] = molecular target: T3, N321A-BR_(187–385) (S. pneumoniae TIGR4, UniProt A0A0H2URK1 186-384, N321A); experiment: ELISA; KRT10-TRD coated; WT-BR_(187–385) and mutated variants at a single concentration of 1 µM; detected with Strep-Tactin HRP; normalised intensities
T3 construct: PsrP, S. pneumoniae TIGR4, residues 187-385, with N321A; source: expressed from pET21d; purification of the mutants not detailed (SEC mentioned)
T3 sequence: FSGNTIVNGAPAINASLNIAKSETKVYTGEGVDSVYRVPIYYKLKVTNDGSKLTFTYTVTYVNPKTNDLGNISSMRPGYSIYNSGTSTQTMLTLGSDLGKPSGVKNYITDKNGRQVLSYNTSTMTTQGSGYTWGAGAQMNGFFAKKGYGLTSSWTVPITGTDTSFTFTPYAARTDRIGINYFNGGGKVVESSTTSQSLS

[5] = molecular target: T4, K231A-BR_(187–385) (S. pneumoniae TIGR4, UniProt A0A0H2URK1 186-384, K231A); experiment: as above
T4 construct: PsrP, S. pneumoniae TIGR4, residues 187-385, with K231A; also called control K231A-BR_(187–385); source: expressed from pET21d; purification of the mutants not detailed (SEC mentioned)
T4 sequence: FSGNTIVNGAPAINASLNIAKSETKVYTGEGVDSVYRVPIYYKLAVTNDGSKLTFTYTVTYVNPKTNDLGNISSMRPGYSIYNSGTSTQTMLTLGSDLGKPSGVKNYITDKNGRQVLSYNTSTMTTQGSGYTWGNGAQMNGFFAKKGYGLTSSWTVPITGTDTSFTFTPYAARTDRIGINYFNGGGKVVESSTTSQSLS

B1: Strep-Tag-II BR_(187–385) (KRT10-binding domain of the pneumococcal serine-rich repeat protein PsrP) (domain or fragment)
chain: FSGNTIVNGAPAINASLNIAKSETKVYTGEGVDSVYRVPIYYKLKVTNDGSKLTFTYTVTYVNPKTNDLGNISSMRPGYSIYNSGTSTQTMLTLGSDLGKPSGVKNYITDKNGRQVLSYNTSTMTTQGSGYTWGNGAQMNGFFAKKGYGLTSSWTVPITGTDTSFTFTPYAARTDRIGINYFNGGGKVVESSTTSQSLS
notes: also called STII-BR_(187–385); WT-BR_(187–385)
Q: How did the EC50 [1] turn out when B1 was run?
A: 345 nM

Q: And the EC50 [2]?
A: ~1800 nM

Q: What about the EC50 [3] of the same binder?
A: 345 nM

Q: Does B2 bind [4]?
A: binds

Q: Does B2 bind [5]?
A: binds
